These results are taken from PMC8089094, “Mispair-bound human MutS–MutL complex triggers DNA incisions and activates mismatch repair” (Cell Research, 2021).

One data set relates to LacI. The data set is described as follows: EMSA. The settings on record: IPTG; EMSA: 10 mM HEPES pH 7.5, 110 mM KCl, 5 mM MgCl2, 1 mM DTT, 200 ug/mL BSA, 1 pmol cold homoduplex, +/- 2 mM ATP, 20 min on ice; sucrose gradient: 10 mM ….
Data set [1] concerns the target T1, human MutSα (MSH2·MSH6 heterodimer), wild type (human, UniProt P43246 1-934; P52701 1-1360).
T1 construct: MSH2 subunit of human MutSα; MSH6 subunit of human MutSα; also called WT MutSα; MSH2WT·MSH6WT; source: insect cells, purified to homogeneity
Put plainly: native gel or EMSA; with ATP (2 mM); 0.1 pmol 32P-labeled 100-bp duplex with a G–T mismatch, 2 pmol MutSα or MutLα; more slowly migrating MutSα–MutLα–DNA complex; 10 mM HEPES pH 7.5, 5 mM MgCl2, 1 mM DTT, 110 mM KCl, 20 min on ice; 4% non-denaturing polyacrylamide. The settings on record: both partners purified. For orientation: Mobility shift assays separate free from complexed probe on a gel.

Where only a bound is given, the exact number is not on record here.

T1 sequence (P43246 whole entry, chain 1 of 2): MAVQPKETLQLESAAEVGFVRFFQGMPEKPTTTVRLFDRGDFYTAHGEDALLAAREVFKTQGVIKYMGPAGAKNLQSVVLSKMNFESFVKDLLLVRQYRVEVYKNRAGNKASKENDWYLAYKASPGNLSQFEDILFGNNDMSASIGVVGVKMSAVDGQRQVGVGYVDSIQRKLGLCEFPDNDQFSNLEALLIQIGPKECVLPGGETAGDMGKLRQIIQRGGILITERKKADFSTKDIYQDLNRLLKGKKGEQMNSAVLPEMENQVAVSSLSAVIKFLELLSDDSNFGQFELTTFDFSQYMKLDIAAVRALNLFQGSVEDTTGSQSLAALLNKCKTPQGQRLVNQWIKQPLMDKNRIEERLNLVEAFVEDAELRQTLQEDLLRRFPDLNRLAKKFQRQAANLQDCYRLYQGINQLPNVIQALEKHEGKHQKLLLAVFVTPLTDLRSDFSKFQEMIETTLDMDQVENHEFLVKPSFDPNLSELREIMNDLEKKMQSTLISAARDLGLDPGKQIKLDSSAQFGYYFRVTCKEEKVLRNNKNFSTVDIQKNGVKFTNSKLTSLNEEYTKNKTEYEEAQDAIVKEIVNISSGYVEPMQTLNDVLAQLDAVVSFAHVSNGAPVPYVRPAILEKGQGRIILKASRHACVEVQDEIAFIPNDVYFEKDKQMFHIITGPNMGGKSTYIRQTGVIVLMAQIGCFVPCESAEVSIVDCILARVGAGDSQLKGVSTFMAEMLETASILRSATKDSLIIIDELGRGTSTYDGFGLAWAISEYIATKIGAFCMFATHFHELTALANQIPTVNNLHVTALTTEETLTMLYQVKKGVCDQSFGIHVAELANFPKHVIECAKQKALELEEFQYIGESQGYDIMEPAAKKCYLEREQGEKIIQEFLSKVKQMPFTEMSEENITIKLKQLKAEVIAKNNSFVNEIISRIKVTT
T1 sequence (P52701 whole entry, chain 2 of 2): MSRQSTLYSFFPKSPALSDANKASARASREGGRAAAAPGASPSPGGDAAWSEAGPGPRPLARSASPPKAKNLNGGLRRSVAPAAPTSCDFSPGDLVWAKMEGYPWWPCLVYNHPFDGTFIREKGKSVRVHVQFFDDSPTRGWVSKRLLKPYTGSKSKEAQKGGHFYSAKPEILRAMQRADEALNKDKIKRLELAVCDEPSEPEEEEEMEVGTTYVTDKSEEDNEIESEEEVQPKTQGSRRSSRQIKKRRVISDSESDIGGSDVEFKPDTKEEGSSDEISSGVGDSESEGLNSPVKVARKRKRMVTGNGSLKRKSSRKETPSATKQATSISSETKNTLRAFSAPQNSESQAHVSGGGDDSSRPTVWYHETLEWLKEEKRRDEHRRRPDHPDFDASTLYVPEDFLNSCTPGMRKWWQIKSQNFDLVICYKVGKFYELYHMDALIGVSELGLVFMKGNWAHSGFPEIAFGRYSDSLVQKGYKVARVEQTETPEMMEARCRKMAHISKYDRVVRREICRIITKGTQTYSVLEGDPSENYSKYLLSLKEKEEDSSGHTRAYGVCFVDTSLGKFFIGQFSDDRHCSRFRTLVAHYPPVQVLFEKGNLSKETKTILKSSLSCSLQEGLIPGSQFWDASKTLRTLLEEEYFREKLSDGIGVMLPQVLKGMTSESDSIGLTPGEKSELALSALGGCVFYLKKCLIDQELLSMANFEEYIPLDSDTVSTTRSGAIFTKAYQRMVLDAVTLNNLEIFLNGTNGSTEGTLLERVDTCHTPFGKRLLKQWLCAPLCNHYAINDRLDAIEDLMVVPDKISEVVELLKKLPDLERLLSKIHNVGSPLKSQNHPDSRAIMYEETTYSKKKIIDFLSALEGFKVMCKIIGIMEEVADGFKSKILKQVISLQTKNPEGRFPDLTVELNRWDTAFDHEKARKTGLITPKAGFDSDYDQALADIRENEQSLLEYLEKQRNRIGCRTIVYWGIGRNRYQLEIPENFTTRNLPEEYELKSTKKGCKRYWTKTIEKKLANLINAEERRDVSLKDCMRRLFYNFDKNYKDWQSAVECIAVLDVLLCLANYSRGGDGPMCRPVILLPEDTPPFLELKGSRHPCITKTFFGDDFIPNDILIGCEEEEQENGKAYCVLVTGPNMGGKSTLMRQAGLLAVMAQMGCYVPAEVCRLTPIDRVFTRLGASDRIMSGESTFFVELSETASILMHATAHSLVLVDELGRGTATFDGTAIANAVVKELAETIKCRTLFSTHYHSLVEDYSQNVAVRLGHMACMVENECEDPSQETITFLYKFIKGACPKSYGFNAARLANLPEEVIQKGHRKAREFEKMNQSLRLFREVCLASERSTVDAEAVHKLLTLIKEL

In the case of “282-bp G-T heteroduplex with LOS I and LOS II”, the binding signal (% of binding released) in the data set with LacI is more than 70.

B1: human MutLα (MLH1·PMS2 heterodimer), wild type (complex)
chain 1: MSFVAGVIRRLDETVVNRIAAGEVIQRPANAIKEMIENCLDAKSTSIQVIVKEGGLKLIQIQDNGTGIRKEDLDIVCERFTTSKLQSFEDLASISTYGFRGEALASISHVAHVTITTKTADGKCAYRASYSDGKLKAPPKPCAGNQGTQITVEDLFYNIATRRKALKNPSEEYGKILEVVGRYSVHNAGISFSVKKQGETVADVRTLPNASTVDNIRSIFGNAVSRELIEIGCEDKTLAFKMNGYISNANYSVKKCIFLLFINHRLVESTSLRKAIETVYAAYLPKNTHPFLYLSLEISPQNVDVNVHPTKHEVHFLHEESILERVQQHIESKLLGSNSSRMYFTQTLLPGLAGPSGEMVKSTTSLTSSSTSGSSDKVYAHQMVRTDSREQKLDAFLQPLSKPLSSQPQAIVTEDKTDISSGRARQQDEEMLELPAPAEVAAKNQSLEGDTTKGTSEMSEKRGPTSSNPRKRHREDSDVEMVEDDSRKEMTAACTPRRRIINLTSVLSLQEEINEQGHEVLREMLHNHSFVGCVNPQWALAQHQTKLYLLNTTKLSEELFYQILIYDFANFGVLRLSEPAPLFDLAMLALDSPESGWTEEDGPKEGLAEYIVEFLKKKAEMLADYFSLEIDEEGNLIGLPLLIDNYVPPLEGLPIFILRLATEVNWDEEKECFESLSKECAMFYSIRKQYISEESTLSGQQSEVPGSIPNSWKWTVEHIVYKALRSHILPPKHFTEDGNILQLANLPDLYKVFERC
chain 2: MERAESSSTEPAKAIKPIDRKSVHQICSGQVVLSLSTAVKELVENSLDAGATNIDLKLKDYGVDLIEVSDNGCGVEEENFEGLTLKHHTSKIQEFADLTQVETFGFRGEALSSLCALSDVTISTCHASAKVGTRLMFDHNGKIIQKTPYPRPRGTTVSVQQLFSTLPVRHKEFQRNIKKEYAKMVQVLHAYCIISAGIRVSCTNQLGQGKRQPVVCTGGSPSIKENIGSVFGQKQLQSLIPFVQLPPSDSVCEEYGLSCSDALHNLFYISGFISQCTHGVGRSSTDRQFFFINRRPCDPAKVCRLVNEVYHMYNRHQYPFVVLNISVDSECVDINVTPDKRQILLQEEKLLLAVLKTSLIGMFDSDVNKLNVSQQPLLDVEGNLIKMHAADLEKPMVEKQDQSPSLRTGEEKKDVSISRLREAFSLRHTTENKPHSPKTPEPRRSPLGQKRGMLSSSTSGAISDKGVLRPQKEAVSSSHGPSDPTDRAEVEKDSGHGSTSVDSEGFSIPDTGSHCSSEYAASSPGDRGSQEHVDSQEKAPKTDDSFSDVDCHSNQEDTGCKFRVLPQPTNLATPNTKRFKKEEILSSSDICQKLVNTQDMSASQVDVAVKINKKVVPLDFSMSSLAKRIKQLHHEAQQSEGEQNYRKFRAKICPGENQAAEDELRKEISKTMFAEMEIIGQFNLGFIITKLNEDIFIVDQHATDEKYNFEMLQQHTVLQGQRLIAPQTLNLTAVNEAVLIENLEIFRKNGFDFVIDENAPVTERAKLISLPTSKNWTFGPQDVDELIFMLSDSPGVMCRPSRVKQMFASRACRKSVMIGTALNTSEMKKLITHMGEMDHPWNCPHGRPTMRHIANLGVISQN
notes: MLH1 subunit of human MutLα; PMS2 subunit of human MutLα; also called WT MutLα; source: insect cells, purified to homogeneity
As for B1, the “stoichiometry N” value in data set [1] was > 1 molecule of MutLα in the MutSα–MutLα complex.
